In article PMC5454392, “Selective BET bromodomain inhibition as an antifungal therapeutic strategy” (Nature Communications, 2017):
Where two headings read alike, the source gives them in different places.

Assays:
[1] = biological target: T1, CaBdf1 BD1 Y248F (Candida albicans, UniProt Q5A4W8, Y248F); assay: Histone peptide microarray binding, YF mutant;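 for CaBdf1 BD1 Normalized (0 to 100%) YF mutant: normalized to spotted c-myc peptide positive control signal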; design: species or system C. albicans; details: YF mutant BD1; for CaBdf1 BD1 Normalized (0 to 100%) YF mutant: normalized array signal; for CaBdf1 BD1 Raw data YF mutant: peptide array signal
T1 construct: made in house; host or cells: E. coli BL21(DE3), inferred from the wild-type GST construct
T1 sequence (Q5A4W8 193-327 Y248F): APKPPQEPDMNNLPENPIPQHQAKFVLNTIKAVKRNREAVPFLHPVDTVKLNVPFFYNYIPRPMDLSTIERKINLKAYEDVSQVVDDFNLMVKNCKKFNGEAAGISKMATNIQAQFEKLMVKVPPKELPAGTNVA
Protocol: (§1) In short, arrays were blocked and incubated with 1 μM of purified CaBdf1 BD1 or BD2. Arrays were incubated with recombinant BDs for 2 h at 4 °C in binding buffer (Tris-HCl 50 mM pH 7.4, NP-40 0.1%, NaCl 150 mM, glycerol 10%). […] Assays were performed in duplicate. Images were acquired on a Bio-Rad ChemiDoc XRS Imaging machine and data were quantified using the array analyser software provided by Active Motif.

[2] = biological target: T2, CaBdf1 BD2 Y425F (Candida albicans, UniProt Q5A4W8, Y425F); assay: Histone peptide microarray binding, YF mutant;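 for CaBdf1 BD2 Normalized (0 to 100%) YF mutant: normalized to spotted c-myc peptide positive control signal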; design: species or system C. albicans; details: YF mutant BD2; for CaBdf1 BD2 Normalized (0 to 100%) YF mutant: normalized array signal; for CaBdf1 BD2 Raw data YF mutant: peptide array signal
T2 construct: made in house; host or cells: E. coli BL21(DE3), inferred from the wild-type GST construct
T2 sequence (Q5A4W8 361-501 Y425F): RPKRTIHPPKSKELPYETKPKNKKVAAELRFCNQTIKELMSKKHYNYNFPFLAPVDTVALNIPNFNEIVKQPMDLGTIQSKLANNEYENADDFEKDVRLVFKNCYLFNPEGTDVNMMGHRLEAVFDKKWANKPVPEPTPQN
Protocol: as §1

[3] = biological target: T3, CaBdf1 BD2 (Candida albicans, UniProt Q5A4W8); assay type: binding; details: wild-type BD2; for CaBdf1 BD2 Normalized (0 to 100%) WT: normalized array signal; for CaBdf1 BD2 Raw data WT: peptide array signal;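 for CaBdf1 BD2 Normalized (0 to 100%) WT: normalized to spotted c-myc peptide positive control signal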
T3 construct: made in house; host or cells: E. coli BL21(DE3)
T3 sequence (Q5A4W8 whole entry, looked up): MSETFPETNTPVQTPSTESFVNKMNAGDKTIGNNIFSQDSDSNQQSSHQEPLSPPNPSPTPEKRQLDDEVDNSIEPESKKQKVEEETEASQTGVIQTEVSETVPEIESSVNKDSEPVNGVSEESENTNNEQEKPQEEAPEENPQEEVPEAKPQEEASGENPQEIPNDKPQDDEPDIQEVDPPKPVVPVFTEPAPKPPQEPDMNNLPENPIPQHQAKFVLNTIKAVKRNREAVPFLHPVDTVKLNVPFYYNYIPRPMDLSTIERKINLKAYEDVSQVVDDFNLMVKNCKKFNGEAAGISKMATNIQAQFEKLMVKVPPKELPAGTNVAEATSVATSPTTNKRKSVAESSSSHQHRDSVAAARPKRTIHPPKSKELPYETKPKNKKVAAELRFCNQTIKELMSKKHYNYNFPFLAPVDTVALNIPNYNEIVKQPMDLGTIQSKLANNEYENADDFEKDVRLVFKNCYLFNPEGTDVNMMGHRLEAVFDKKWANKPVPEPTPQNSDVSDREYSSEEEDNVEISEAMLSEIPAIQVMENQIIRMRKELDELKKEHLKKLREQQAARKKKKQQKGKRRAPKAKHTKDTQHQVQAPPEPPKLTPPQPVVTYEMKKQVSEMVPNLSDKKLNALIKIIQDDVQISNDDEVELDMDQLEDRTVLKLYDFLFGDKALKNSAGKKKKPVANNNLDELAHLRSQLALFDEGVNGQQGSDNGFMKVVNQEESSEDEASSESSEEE
Protocol: (§2) In short, arrays were blocked and incubated with 1 μM of purified CaBdf1 BD1 or BD2. Arrays were incubated with recombinant BDs for 2 h at 4 °C in binding buffer (Tris-HCl 50 mM pH 7.4, NP-40 0.1%, NaCl 150 mM, glycerol 10%). […] Assays were performed in duplicate.

[4] = biological target: T4, CaBdf1 BD1 (Candida albicans, UniProt Q5A4W8); assay type: binding; details: wild-type BD1; for CaBdf1 BD1 Normalized (0 to 100%) WT: normalized array signal; for CaBdf1 BD1 Raw data WT: peptide array signal;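 for CaBdf1 BD1 Normalized (0 to 100%) WT: normalized to spotted c-myc peptide positive control signal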
T4 construct: made in house; host or cells: E. coli BL21(DE3)
T4 sequence (Q5A4W8 whole entry, looked up): T3 sequence (Q5A4W8 whole entry, looked up)
Protocol: as §2

| Sequence | CaBdf1 BD1 Normalized (0 to 100%) YF mutant [1] | CaBdf1 BD1 Raw data YF mutant [1] | CaBdf1 BD2 Normalized (0 to 100%) YF mutant [2] | CaBdf1 BD2 Raw data YF mutant ([2]; first of two raw-data columns) | CaBdf1 BD2 Raw data YF mutant [2] | CaBdf1 BD2 Normalized (0 to 100%) WT [3] | CaBdf1 BD2 Raw data WT ([3]; first of two raw-data columns) | CaBdf1 BD2 Raw data WT [3] | CaBdf1 BD1 Normalized (0 to 100%) WT [4] | CaBdf1 BD1 Raw data WT ([4]; first of two raw-data columns) | CaBdf1 BD1 Raw data WT [4] | CaBdf1 BD1 Raw data YF mutant ([1]; first of two raw-data columns) |
| --- | --- | --- | --- | --- | --- | --- | --- | --- | --- | --- | --- | --- |
| A Rme2s T Kme2 Q T A R Kme1 S T G G K A P R K Q | 0.762% | 0.005144 | 0.244% | 0.002427 | 0.003398 | 0.444% | 0.01441 | 0.005491 | 0.544% | 0.006414 | 0.005345 |  |
| A Rme2s T Kme2 Q T A R Kme3 S T G G K A P R K Q | 0.312% | 0.002058 | 0.44% | 0.004369 | 0.002427 | 0.444% | 0.01716 | 0.002745 | 0.145% | 0.004276 | 0.001603 | 0.003086 |
| A Rme2s T Kme2 Q T A Rme2s K S T G G K A P R K Q | 0.624% | 0.003086 | 0.244% | 0.002427 | 0.004854 | 0.629% | 0.00755 | 0.01579 | 0.181% | 0.002672 | 0.003741 | 0.006173 |
| A Rme2s T Kme3 Q T A R Kme1 S T G G K A P R K Q | 0.831% | 0.002743 | 0.195% |  |  | 0.444% | 0.01441 | 0.005491 | 0.471% | 0.00481 | 0.005879 | 0.00823 |
| A Rme2s T Kme3 Q T A R Kme3 S T G G K A P R K Q | 0.797% | 0.003772 | 0.537% | 0.00534 | 0.002427 | 0.481% | 0.01784 | 0.002745 | 0.254% | 0.003207 | 0.004276 | 0.007888 |
| A Rme2s T Kme3 Q T A Rme2s K S T G G K A P R K Q | 0.346% | 0.004115 | 0.244% | 0.002427 | 0.003398 | 0.444% | 0.008236 | 0.01167 | 0.29% | 0.003207 | 0.00481 | 0.003429 |
